These results are taken from patent publication US20260001928A1 (CORTERIA PHARMACEUTICALS, priority 2022, published 2026).

One test has as its target T1, CRF1R receptor (UniProt P34998 24-415, limits assumed).
T1 sequence (looked up): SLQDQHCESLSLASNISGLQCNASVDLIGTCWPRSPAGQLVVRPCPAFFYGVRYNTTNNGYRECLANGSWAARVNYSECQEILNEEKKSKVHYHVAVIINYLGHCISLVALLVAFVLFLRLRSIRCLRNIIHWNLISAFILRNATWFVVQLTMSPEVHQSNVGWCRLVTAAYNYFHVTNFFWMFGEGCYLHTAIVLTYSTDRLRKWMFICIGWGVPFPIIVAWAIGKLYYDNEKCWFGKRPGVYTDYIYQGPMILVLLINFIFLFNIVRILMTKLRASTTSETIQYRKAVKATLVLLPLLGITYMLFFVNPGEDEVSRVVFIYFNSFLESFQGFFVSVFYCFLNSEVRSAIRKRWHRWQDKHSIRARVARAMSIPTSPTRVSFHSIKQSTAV
Put plainly: cell-based or functional assay.

The target of test [1] is human corticotropin-releasing factor 2a (CRF2a receptor) (human), Q13324. Put plainly: cell-based or functional assay.
Chain of human corticotropin-releasing factor 2a (CRF2a receptor) (human), Q13324 (Q13324 20-411): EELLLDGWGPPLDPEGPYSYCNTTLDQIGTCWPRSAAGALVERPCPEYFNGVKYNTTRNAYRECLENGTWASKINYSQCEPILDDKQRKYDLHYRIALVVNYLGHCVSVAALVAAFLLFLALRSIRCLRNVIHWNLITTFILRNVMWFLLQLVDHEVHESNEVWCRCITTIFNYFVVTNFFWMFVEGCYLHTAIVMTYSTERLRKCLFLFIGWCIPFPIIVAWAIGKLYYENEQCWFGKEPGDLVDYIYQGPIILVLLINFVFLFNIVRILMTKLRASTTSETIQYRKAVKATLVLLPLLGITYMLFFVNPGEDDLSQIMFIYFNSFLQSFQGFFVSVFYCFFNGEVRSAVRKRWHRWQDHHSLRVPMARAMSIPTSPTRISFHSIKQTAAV

*1 amine or outer side, *2 acyl side, *3 side chain or, on linkers, in order; H or OH if unused. Where no end group is shown, it is not given here. Side-chain parts run from the residue outwards. [ ]: non-standard residue; d: D form. The star is where a group is joined. C18 diacid = O=C(O)CCCCCCCCCCCCCCCCC(=O)*; γGlu = O=C(O)[C@H](CCC(=O)[*:2])N[*:1]; NMeI = CC[C@H](C)[C@H](NC)C(=O)O; Api = NC1(C(=O)O)CCNCC1; Pentanoyl = CCCCC(=O)*; Aib = CC(C)(N)C(=O)O

One may read the EC50 as the concentration at which the effect is half-maximal. Higher therefore signals weaker potency.

B1: SEQ ID NO 188 (peptide)
peptide: Ac-IVLSLD[dV]PIKLK([γGlu-C18 diacid])KILLEQEKQK[Aib]QREQAETN[Api]QILAQV-NH2
SMILES: CC[C@H](C)[C@H](NC(C)=O)C(=O)N[C@H](C(=O)N[C@@H](CC(C)C)C(=O)N[C@@H](CO)C(=O)N[C@@H](CC(C)C)C(=O)N[C@@H](CC(=O)O)C(=O)N[C@@H](C(=O)N1CCC[C@H]1C(=O)N[C@H](C(=O)N[C@@H](CCCCN)C(=O)N[C@@H](CC(C)C)C(=O)N[C@@H](CCCCNC(=O)CC[C@H](NC(=O)CCCCCCCCCCCCCCCCC(=O)O)C(=O)O)C(=O)N[C@@H](CCCCN)C(=O)N[C@H](C(=O)N[C@@H](CC(C)C)C(=O)N[C@@H](CC(C)C)C(=O)N[C@@H](CCC(=O)O)C(=O)N[C@@H](CCC(N)=O)C(=O)N[C@@H](CCC(=O)O)C(=O)N[C@@H](CCCCN)C(=O)N[C@@H](CCC(N)=O)C(=O)N[C@@H](CCCCN)C(=O)NC(C)(C)C(=O)N[C@@H](CCC(N)=O)C(=O)N[C@@H](CCCNC(=N)N)C(=O)N[C@@H](CCC(=O)O)C(=O)N[C@@H](CCC(N)=O)C(=O)N[C@@H](C)C(=O)N[C@@H](CCC(=O)O)C(=O)N[C@H](C(=O)N[C@@H](CC(N)=O)C(=O)NC1(C(=O)N[C@@H](CCC(N)=O)C(=O)N[C@H](C(=O)N[C@@H](CC(C)C)C(=O)N[C@@H](C)C(=O)N[C@@H](CCC(N)=O)C(=O)N[C@H](C(N)=O)C(C)C)[C@@H](C)CC)CCNCC1)[C@@H](C)O)[C@@H](C)CC)[C@@H](C)CC)C(C)C)C(C)C
Regarding B1, the “Emax (% I)” value with CRF1R receptor was determined as 32%. In addition, in test [1], the EC50 [nM] (cAMP) stood at 0.28 nM.

B2: SEQ ID NO 189 (peptide)
peptide: Ac-IVLSLD[dV]PIKLK([γGlu-C18 diacid])KILLEQEKQKAQREQAETN[Aib]QILAQV-NH2
SMILES: CC[C@H](C)[C@H](NC(C)=O)C(=O)N[C@H](C(=O)N[C@@H](CC(C)C)C(=O)N[C@@H](CO)C(=O)N[C@@H](CC(C)C)C(=O)N[C@@H](CC(=O)O)C(=O)N[C@@H](C(=O)N1CCC[C@H]1C(=O)N[C@H](C(=O)N[C@@H](CCCCN)C(=O)N[C@@H](CC(C)C)C(=O)N[C@@H](CCCCNC(=O)CC[C@H](NC(=O)CCCCCCCCCCCCCCCCC(=O)O)C(=O)O)C(=O)N[C@@H](CCCCN)C(=O)N[C@H](C(=O)N[C@@H](CC(C)C)C(=O)N[C@@H](CC(C)C)C(=O)N[C@@H](CCC(=O)O)C(=O)N[C@@H](CCC(N)=O)C(=O)N[C@@H](CCC(=O)O)C(=O)N[C@@H](CCCCN)C(=O)N[C@@H](CCC(N)=O)C(=O)N[C@@H](CCCCN)C(=O)N[C@@H](C)C(=O)N[C@@H](CCC(N)=O)C(=O)N[C@@H](CCCNC(=N)N)C(=O)N[C@@H](CCC(=O)O)C(=O)N[C@@H](CCC(N)=O)C(=O)N[C@@H](C)C(=O)N[C@@H](CCC(=O)O)C(=O)N[C@H](C(=O)N[C@@H](CC(N)=O)C(=O)NC(C)(C)C(=O)N[C@@H](CCC(N)=O)C(=O)N[C@H](C(=O)N[C@@H](CC(C)C)C(=O)N[C@@H](C)C(=O)N[C@@H](CCC(N)=O)C(=O)N[C@H](C(N)=O)C(C)C)[C@@H](C)CC)[C@@H](C)O)[C@@H](C)CC)[C@@H](C)CC)C(C)C)C(C)C
B2: the “Emax (% I)” value in the test with CRF1R receptor was found to be 9%. In test [1], this molecule gave an EC50 [nM] (cAMP) of 0.29 nM.

B3: SEQ ID NO 191 (peptide)
peptide: Ac-IVLSLD[dV]PIGLK([γGlu-C18 diacid])KILLEQEKQKKQREQAETN[Aib]QILAQV-NH2
SMILES: CC[C@H](C)[C@H](NC(C)=O)C(=O)N[C@H](C(=O)N[C@@H](CC(C)C)C(=O)N[C@@H](CO)C(=O)N[C@@H](CC(C)C)C(=O)N[C@@H](CC(=O)O)C(=O)N[C@@H](C(=O)N1CCC[C@H]1C(=O)N[C@H](C(=O)NCC(=O)N[C@@H](CC(C)C)C(=O)N[C@@H](CCCCNC(=O)CC[C@H](NC(=O)CCCCCCCCCCCCCCCCC(=O)O)C(=O)O)C(=O)N[C@@H](CCCCN)C(=O)N[C@H](C(=O)N[C@@H](CC(C)C)C(=O)N[C@@H](CC(C)C)C(=O)N[C@@H](CCC(=O)O)C(=O)N[C@@H](CCC(N)=O)C(=O)N[C@@H](CCC(=O)O)C(=O)N[C@@H](CCCCN)C(=O)N[C@@H](CCC(N)=O)C(=O)N[C@@H](CCCCN)C(=O)N[C@@H](CCCCN)C(=O)N[C@@H](CCC(N)=O)C(=O)N[C@@H](CCCNC(=N)N)C(=O)N[C@@H](CCC(=O)O)C(=O)N[C@@H](CCC(N)=O)C(=O)N[C@@H](C)C(=O)N[C@@H](CCC(=O)O)C(=O)N[C@H](C(=O)N[C@@H](CC(N)=O)C(=O)NC(C)(C)C(=O)N[C@@H](CCC(N)=O)C(=O)N[C@H](C(=O)N[C@@H](CC(C)C)C(=O)N[C@@H](C)C(=O)N[C@@H](CCC(N)=O)C(=O)N[C@H](C(N)=O)C(C)C)[C@@H](C)CC)[C@@H](C)O)[C@@H](C)CC)[C@@H](C)CC)C(C)C)C(C)C
As to B3, in the test with CRF1R receptor, the response was half-maximal at 92.9 nM (EC50) and the “Emax (% I)” value came to 54%. In addition, the EC50 [nM] (cAMP) in test [1] is 0.18 nM.

B4: SEQ ID NO 193 (peptide)
peptide: Pentanoyl-VLSLD[dV]PIKLK([γGlu-C18 diacid])KILLEQEKQKKQREQAETN[Aib]QILAQV-NH2
SMILES: CCCCC(=O)N[C@H](C(=O)N[C@@H](CC(C)C)C(=O)N[C@@H](CO)C(=O)N[C@@H](CC(C)C)C(=O)N[C@@H](CC(=O)O)C(=O)N[C@@H](C(=O)N1CCC[C@H]1C(=O)N[C@H](C(=O)N[C@@H](CCCCN)C(=O)N[C@@H](CC(C)C)C(=O)N[C@@H](CCCCNC(=O)CC[C@H](NC(=O)CCCCCCCCCCCCCCCCC(=O)O)C(=O)O)C(=O)N[C@@H](CCCCN)C(=O)N[C@H](C(=O)N[C@@H](CC(C)C)C(=O)N[C@@H](CC(C)C)C(=O)N[C@@H](CCC(=O)O)C(=O)N[C@@H](CCC(N)=O)C(=O)N[C@@H](CCC(=O)O)C(=O)N[C@@H](CCCCN)C(=O)N[C@@H](CCC(N)=O)C(=O)N[C@@H](CCCCN)C(=O)N[C@@H](CCCCN)C(=O)N[C@@H](CCC(N)=O)C(=O)N[C@@H](CCCNC(=N)N)C(=O)N[C@@H](CCC(=O)O)C(=O)N[C@@H](CCC(N)=O)C(=O)N[C@@H](C)C(=O)N[C@@H](CCC(=O)O)C(=O)N[C@H](C(=O)N[C@@H](CC(N)=O)C(=O)NC(C)(C)C(=O)N[C@@H](CCC(N)=O)C(=O)N[C@H](C(=O)N[C@@H](CC(C)C)C(=O)N[C@@H](C)C(=O)N[C@@H](CCC(N)=O)C(=O)N[C@H](C(N)=O)C(C)C)[C@@H](C)CC)[C@@H](C)O)[C@@H](C)CC)[C@@H](C)CC)C(C)C)C(C)C
B4: the “Emax (% I)” value in the test with CRF1R receptor came to 20%. The EC50 [nM] (cAMP) in test [1] was 0.17 nM.

B5: SEQ ID NO 190 (peptide)
peptide: Ac-IVLSLD[dV]PIKLK([γGlu-C18 diacid])KILLEQEKQK[Aib]QREQAETN[Aib]QILAQV-NH2
SMILES: CC[C@H](C)[C@H](NC(C)=O)C(=O)N[C@H](C(=O)N[C@@H](CC(C)C)C(=O)N[C@@H](CO)C(=O)N[C@@H](CC(C)C)C(=O)N[C@@H](CC(=O)O)C(=O)N[C@@H](C(=O)N1CCC[C@H]1C(=O)N[C@H](C(=O)N[C@@H](CCCCN)C(=O)N[C@@H](CC(C)C)C(=O)N[C@@H](CCCCNC(=O)CC[C@H](NC(=O)CCCCCCCCCCCCCCCCC(=O)O)C(=O)O)C(=O)N[C@@H](CCCCN)C(=O)N[C@H](C(=O)N[C@@H](CC(C)C)C(=O)N[C@@H](CC(C)C)C(=O)N[C@@H](CCC(=O)O)C(=O)N[C@@H](CCC(N)=O)C(=O)N[C@@H](CCC(=O)O)C(=O)N[C@@H](CCCCN)C(=O)N[C@@H](CCC(N)=O)C(=O)N[C@@H](CCCCN)C(=O)NC(C)(C)C(=O)N[C@@H](CCC(N)=O)C(=O)N[C@@H](CCCNC(=N)N)C(=O)N[C@@H](CCC(=O)O)C(=O)N[C@@H](CCC(N)=O)C(=O)N[C@@H](C)C(=O)N[C@@H](CCC(=O)O)C(=O)N[C@H](C(=O)N[C@@H](CC(N)=O)C(=O)NC(C)(C)C(=O)N[C@@H](CCC(N)=O)C(=O)N[C@H](C(=O)N[C@@H](CC(C)C)C(=O)N[C@@H](C)C(=O)N[C@@H](CCC(N)=O)C(=O)N[C@H](C(N)=O)C(C)C)[C@@H](C)CC)[C@@H](C)O)[C@@H](C)CC)[C@@H](C)CC)C(C)C)C(C)C
As for B5, the “Emax (% I)” value in the test with CRF1R receptor was 9%. The same molecule displayed an EC50 [nM] (cAMP) in test [1] of 0.3 nM.

B6: SEQ ID NO 192 (peptide)
peptide: [NMeI]VLSLD[dV]PIGLK([γGlu-C18 diacid])KILLEQEKQKKQREQAETN[Aib]QILAQV-NH2
modifications: N-terminus assumed
SMILES: CC[C@H](C)[C@H](NC)C(=O)N[C@H](C(=O)N[C@@H](CC(C)C)C(=O)N[C@@H](CO)C(=O)N[C@@H](CC(C)C)C(=O)N[C@@H](CC(=O)O)C(=O)N[C@@H](C(=O)N1CCC[C@H]1C(=O)N[C@H](C(=O)NCC(=O)N[C@@H](CC(C)C)C(=O)N[C@@H](CCCCNC(=O)CC[C@H](NC(=O)CCCCCCCCCCCCCCCCC(=O)O)C(=O)O)C(=O)N[C@@H](CCCCN)C(=O)N[C@H](C(=O)N[C@@H](CC(C)C)C(=O)N[C@@H](CC(C)C)C(=O)N[C@@H](CCC(=O)O)C(=O)N[C@@H](CCC(N)=O)C(=O)N[C@@H](CCC(=O)O)C(=O)N[C@@H](CCCCN)C(=O)N[C@@H](CCC(N)=O)C(=O)N[C@@H](CCCCN)C(=O)N[C@@H](CCCCN)C(=O)N[C@@H](CCC(N)=O)C(=O)N[C@@H](CCCNC(=N)N)C(=O)N[C@@H](CCC(=O)O)C(=O)N[C@@H](CCC(N)=O)C(=O)N[C@@H](C)C(=O)N[C@@H](CCC(=O)O)C(=O)N[C@H](C(=O)N[C@@H](CC(N)=O)C(=O)NC(C)(C)C(=O)N[C@@H](CCC(N)=O)C(=O)N[C@H](C(=O)N[C@@H](CC(C)C)C(=O)N[C@@H](C)C(=O)N[C@@H](CCC(N)=O)C(=O)N[C@H](C(N)=O)C(C)C)[C@@H](C)CC)[C@@H](C)O)[C@@H](C)CC)[C@@H](C)CC)C(C)C)C(C)C
Regarding B6, the “Emax (% I)” value with CRF1R receptor worked out at 19%. The same molecule gave an EC50 [nM] (cAMP) in test [1] of 0.11 nM.
